Results from patent US20170157250A1 (Genmab, published 2017).
Blank lines part the entries; values can stand above or below the binder they belong to.

Experiments:
[1] = biological target: T1, human AXL (full length, on cells) (human (Homo sapiens), UniProt P30530 26-894); test: flow cytometry, HEK-293F cells transfected with full length human AXL, 4-fold dilutions of antibody, PE-anti-human IgG F(ab')2
T1 construct: Used for transfected HEK293 cells and for AXL-positive A431 cells (endogenous AXL); also called hsAXL; Homo sapiens AXL
T1 sequence: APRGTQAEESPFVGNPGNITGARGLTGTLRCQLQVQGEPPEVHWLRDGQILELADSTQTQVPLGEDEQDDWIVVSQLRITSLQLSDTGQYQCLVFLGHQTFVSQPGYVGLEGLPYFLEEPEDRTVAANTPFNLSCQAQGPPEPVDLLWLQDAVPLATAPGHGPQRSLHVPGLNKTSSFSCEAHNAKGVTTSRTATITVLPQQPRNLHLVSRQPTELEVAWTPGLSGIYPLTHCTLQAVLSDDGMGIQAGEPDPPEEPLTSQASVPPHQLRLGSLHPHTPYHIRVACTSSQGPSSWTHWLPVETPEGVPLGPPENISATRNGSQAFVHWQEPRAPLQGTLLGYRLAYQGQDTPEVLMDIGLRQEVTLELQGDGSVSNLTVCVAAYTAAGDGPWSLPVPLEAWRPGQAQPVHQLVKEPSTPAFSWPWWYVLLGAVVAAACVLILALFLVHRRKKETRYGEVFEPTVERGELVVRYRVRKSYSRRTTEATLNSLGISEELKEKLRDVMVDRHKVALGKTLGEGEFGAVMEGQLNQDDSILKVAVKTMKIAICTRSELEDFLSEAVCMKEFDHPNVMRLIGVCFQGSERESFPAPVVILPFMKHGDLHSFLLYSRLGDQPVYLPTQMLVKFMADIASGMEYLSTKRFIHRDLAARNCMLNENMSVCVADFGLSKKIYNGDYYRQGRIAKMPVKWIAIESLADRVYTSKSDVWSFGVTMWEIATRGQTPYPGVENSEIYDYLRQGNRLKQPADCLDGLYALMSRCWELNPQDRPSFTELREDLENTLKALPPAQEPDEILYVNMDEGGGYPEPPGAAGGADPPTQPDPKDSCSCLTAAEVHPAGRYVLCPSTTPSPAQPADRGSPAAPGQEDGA

[2] = biological target: T1, human AXL (full length, on cells); test: flow cytometry, HEK293T cells transiently transfected with full-length human AXL, 4-fold dilutions, PE-anti-human IgG F(ab')2
Protocol: Binding curves were analyzed using non-linear regression (sigmoidal dose-response with variable slope) using GraphPad Prism V5.04 software (GraphPad Software, San Diego, Calif., USA).

EC50 (read off the curve) [1]: ~0.2 µg/mL
B1: IgG1-AXL-107 (antibody, V domains shown)
VH: EVQLLESGGGLVQPGGSLRLSCAASGFTFSSYAMNWVRQAPGKGLEWVSTTSGSGASTYYADSVKGRFTISRDNSKNTLYLQMNSLRAEDTAVYYCAKIWIAFDIWGQGTMVTVSS
VL: not shown
notes: Expressed as IgG1,kappa

EC50 (read off the curve) [2]: ~0.2 µg/mL
B2: IgG1-AXL-183-A-vcDuo3 (other)
heavy chain: QVQLQQWGAGLLKPSETLSLTCAVYGGSFSGYYWSWIRQPPGKGLEWIGEINQSGSTNYNPSLKSRVTISVDTSKNQFSLKLSSVTAADTSVYYCASGNWDHFFDYWGQGTLVTVSS
light chain: DIQMTQSPSSVSASVGDRVTITCRASQGISSWLAWYQHKPGKAPKLLIYATSSLQSGVTSRFSGSGSGTDFTLTISSLQPEDFATYYCQQAKSFPWTFGQGTKVEIK
notes: The sheet writes '-A-vcDuo3', the text '-vcDuo3'; also called IgG1-AXL-183-vcDuo3; IgG1-AXL-183-vcDuostatin3

EC50 (read off the curve) [1]: ~0.2 µg/mL
B3: IgG1-AXL-171 (antibody, V domains shown)
VH: EVQLLESGGGLVQPGGSLRLSCAASGFTFSSYAMSWVRQAPGKGLEWVSDISVSGGSTYYADSVKGRFTISRDNSKNTLYLQMNSLRAEDTAVYYCAKEGYIWFGESLSYAFDIWGQGTMVTVSS
VL: not shown
notes: Expressed as IgG1,kappa
